Results: PMC7437921

Key:
Test in all cases: FRET or BRET
CXCR4(D187A) (human) = CXCR4(D187A) (human) (UniProt P61073)
[1] = biological target: CXCR4(Δ1–15), HA-free (tagless) (human) (UniProt P61073)
CXCR4(R30Q) (human) = CXCR4(R30Q) (human) (UniProt P61073)
[2] = biological target: CXCR4(Δ1–25), HA-free (tagless) (human) (UniProt P61073)

efficacy (Emax) remaining, % of WT CXCR4 (CXCR4(D187A) (human)): 30% | efficacy (Emax) remaining, % of WT CXCR4 [1]: 33% | decrease in efficacy (Emax) vs WT CXCR4 (CXCR4(R30Q) (human)): 30% | efficacy (Emax) remaining, % of WT CXCR4 [2]: 23%
Substance: renilla GFP fused to mini-Gαsi
